Here are results for 3 molecules from patent US20100196267A1.

Test [1] addresses HLA-DR (human). The experiment in a line: indirect flow cytometry, FITC-GAH Fc 2nd Ab, Namalwa cells (none 2.6); negative control antibody.
The target in test [2] is HLA-DR (human). Put plainly: indirect flow cytometry, FITC-GAH Fc 2nd Ab, Daudi cells (none 3.2); negative control antibody.
The target of test [3] is HLA-DR (human). Put plainly: indirect flow cytometry, FITC-GAH Fc 2nd Ab, WSU-FSCCL cells (none 2.7); negative control antibody.
Test [4] deals with HLA-DR (human). The experiment in a line: indirect flow cytometry on Namalwa cells, FITC-GAH 2nd Ab (none 2.52); control antibody.
The target of test [5] is HLA-DR (human). The experiment in a line: indirect flow cytometry, FITC-GAH Fc 2nd Ab, SU-DHL-6 cells (none 4.6); negative control antibody.
In test [6] the target is HLA-DR (human). The experiment in a line: indirect FACS, FITC-GAH Fc 2nd Ab, Namalwa cells (none 2.5); control antibody.
The target of test [7] is HLA-DR (human). The experiment in a line: indirect flow cytometry, FITC-GAH Fc 2nd Ab, RL cells (none 2.4); negative control antibody.
Test [8] concerns the target HLA-DR (human). Put plainly: indirect FACS, FITC-GAH Fc 2nd Ab, Raji cells (none 6.8); control antibody.
The target of test [9] is antigen on dog lymphoma cells recognised by L243 and hL243 (dog). The experiment in a line: flow cytometry on dog lymphoma aspirate, humanized MAbs (none 3.24); control antibody.
The target of test [10] is HLA-DR (human). Put plainly: indirect FACS, FITC-GAH Fc 2nd Ab, WSU-FSCCL cells (none 2.6); control antibody.
The target in test [11] is HLA-DR (human). Put plainly: indirect FACS, FITC-GAH Fc 2nd Ab, Daudi cells (none 3.1); control antibody.
Test [12] deals with HLA-DR (human). The experiment in a line: indirect FACS, FITC-GAH Fc 2nd Ab, SU-DHL-6 cells (none 4.6); control antibody.
The target of test [13] is HLA-DR (human). Put plainly: indirect FACS, FITC-GAH Fc 2nd Ab, Ramos cells (none 3.1); control antibody.
For test [14], the target named is antigen on dog lymphoma cells recognised by L243 and hL243 (dog). The experiment in a line: flow cytometry on dog lymphoma aspirate, humanized MAbs (none 4.48); control antibody.
The target of test [15] is HLA-DR (human). The experiment in a line: indirect flow cytometry, FITC-GAH Fc 2nd Ab, Ramos cells (none 3.1); negative control antibody.
For test [16], the target named is HLA-DR (human). Put plainly: indirect flow cytometry, FITC-GAH Fc 2nd Ab, Raji cells (none 6.9); negative control antibody.
Test [17] deals with HLA-DR (human). Put plainly: indirect flow cytometry on Namalwa cells, FITC-GAM 2nd Ab (none 2.91); control antibody.
The target in test [18] is human serum complement (human). Put plainly: cell-based or functional assay.

B1: hMN-14 (antibody, INN chains, looked up, V domains shown)
VH: EVQLVESGGGVVQPGRSLRLSCSASGFDFTTYWMSWVRQAPGKGLEWIGEIHPDSSTINYAPSLKDRFTISRDNAKNTLFLQMDSLRPEDTGVYFCASLYFGFPWFAYWGQGTPVTVSS
VL: DIQLTQSPSSLSASVGDRVTITCKASQDVGTSVAWYQQKPGKAPKLLIYWTSTRHTGVPSRFSGSGSGTDFTFTISSLQPEDIATYYCQQYSLYRSFGQGTKVEIKR
Consider B1, for which the Geometric Mean Fluorescence was determined as 2.4 in test [1]; 3.2 in test [2]; 2.7 in test [3]; 4.9 in test [5]; 2.36 in test [6]; 2.8 in test [7]. For the same molecule, the Geometric Mean Fluorescence was determined as 6.96 in test [8]; 2.66 in [10]; 3.16 in test [11]; 4.94 in test [12]; 3.13 in test [13]; 3.1 in test [15]. Also, the Geometric Mean Fluorescence in test [16] turned out to be 7. In test [4], this molecule came in with a GEO MEAN Fluorescence of 2.49. Moreover, the Mean FL in test [9] was determined as 3.24. This molecule gave a % in [14] of 4.63%.

B2: MN14 (murine) (antibody, from a related filing, V domains shown)
VH: EVKLLESGGGLVQSGGSLKLSCAASGFDFTTYWMSWVRQAPGKGLEWIGEIHPDSSTINYAPSLKDKFIVSRDNAKNTLYLQMSKVRSEDTALYYCASLYFGFPWFAYWGQGTPVTVSA
VL: EIQLTQSHKMMSTSVGDRVSITCKASQDVGTSVAWYQQRPGQSPKLLIYWTSTRHTGVPDRFTGSVSGTDFTLTITNVQSEDLADYFCQQYSLYRSFGGGTKLEIK
In the case of B2, in [17], the GEO MEAN Fluorescence was found to be 3.32.

B3: hL243γ1 (antibody, human IgG1, V domains shown)
VH: QVQLQQSGSELKKPGASVKVSCKASGFTFTNYGMNWVKQAPGQGLKWMGWINTYTREPTYADDFKGRFAFSLDTSVSTAYLQISSLKADDTAVYFCARDITAVVPTGFDYWGQGSLVTVSS
VL: DIQLTQSPSSLSASVGDRVTITCRASENIYSNLAWYRQKPGKAPKLLVFAASNLADGVPSRFSGSGSGTDYTFTISSLQPEDIATYYCQHFWTTPWAFGGGTKLQIKR
B3 returned a complement-mediated cytotoxicity (CDC) on Daudi cells, resazurin viability, EC50 in [18] of 2.6 nM.
